Numbering of substitutions follows the chain as printed.
B1: M-HLE1 heavy chain paired with the light chain construct M-KV4 (antibody, V domains shown)
VH: EVQLVESGGGLVKPGGSLRLSCAASGFTFSNYWMNWVRQAPGKGLEWVGEIRLKSNNFGRYYAQKFQERVTITRDMSTSTAYMELSSLRSEDTAVYYCAAYGNYVGHYFDHWGQGTTVTVSS
VL: DIQLTQSPSFLSASVGDRVTITCKASQNVDTNVAWYQQKPGKAPEPLLFSASYRYTGVPSRFSGSGSGTEFTLTISSLQPEDFATYYCQQYNSYPLTFGGGTKVEIKR
notes: also called M-HLE1/M-KV4
B2: M-HLC heavy chain combined with the light chain construct M-KV3 (antibody, V domains shown)
VH: QVQLVQSGAEVKKPGASVKVSCKASGYTFTNYWMNWVRQAPGQGLEWMGEIRLKSNNFGRYYAESVKGRVTITRDTSMSTAYMELSSLRSEDTAVYYCAAYGNYVGHYFDHWGQGTTVTVSS
VL: B1 VL with I21V
notes: also called M-HLC/M-KV3
B3: M-HLD heavy chain paired with the M-KV9 light chain (antibody, V domains shown)
VH: B2 VH with Y27F, T30S
VL: B1 VL with K42Q, E45R, L48I, F49Y
notes: also called M-HLD/M-KV9
B4: M-HLA heavy chain combined with the light chain construct M-KV3 (antibody, V domains shown)
VH: B2 VH with E64Q, S65K, V66F, K67Q, I72M, M78T, A81V, A100R
VL: B1 VL with I21V
notes: also called M-HLA/M-KV3
B5: M-HLE2 heavy chain paired with the light chain construct M-KV4 (antibody, V domains shown)
VH: B1 VH with Q64E, K65S, F66V, Q67K, E68G
VL: B1 VL
notes: also called M-HLE2/M-KV4
B6: M-HLB heavy chain combined with the light chain construct M-KV3 (antibody, V domains shown)
VH: B2 VH with E64Q, S65K, V66F, K67Q
VL: B1 VL with I21V
notes: also called M-HLB/M-KV3
B7: M-KV3 light chain coexpressed with murine 225.28S heavy chain (mVH) (antibody, V domains shown)
VH: QVKLQQSGGGLVQPGGSMKLSCVVSGFTFSNYWMNWVRQSPEKGLEWIAEIRLKSNNFGRYYAESVKGRFTISRDDSKSSAYLQMINLRAEDTGIYYCTSYGNYVGHYFDHWGQGTTVTVSS
VL: B1 VL with I21V
notes: The VL entry ends in KRT; also called mVH/M-KV3
B8: M-HHB heavy chain coexpressed with murine 225.28S light chain (mVL) (antibody, V domains shown)
VH: EVQLVESGGGLVKPGGSLRLSCAASGFTFSNYWMNWVRQAPGKGLEWVGEIRLKSNNFGRYYAESVKGRFTISRDDSKNTLYLQMNSLKTEDTAVYYCTSYGNYVGHYFDHWGQGTTVTVSS
VL: DIELTQSPKFMSTSVGDRVSVTCKASQNVDTNVAWYQQKPGQSPEPLLFSASYRYTGVPDRFTGSGSGTDFTLTISNVQSEDLAEYFCQQYNSYPLTFGGGTKLEIK
notes: also called M-HHB/mVL
B9: humanized M-HLG/M-KV9 construct of the 225.28S antibody (antibody, V domains shown)
VH: B8 VH with K13Q, G49A, E64A, S100T
VL: B1 VL with K42Q, E45R, L48I, F49Y
notes: also called M-KV9 together with M-HLG
B10: M-KV10 light chain combined with the M-HLG heavy chain (antibody, V domains shown)
VH: B8 VH with K13Q, G49A, E64A, S100T
VL: B1 VL with K24R, V33L, K42Q, E45R, L48I, F49Y
notes: also called M-HLG/M-KV10
B11: M-KV6 light chain paired with the M-HHB heavy chain (antibody, V domains shown)
VH: B8 VH
VL: B1 VL with Y36F, K39R, K42Q, A43S, E45R, P46R, L48I, F49Y
notes: also called M-HHB/M-KV6
B12: M-HLG heavy chain paired with the light chain construct M-KV4 (antibody, V domains shown)
VH: B8 VH with K13Q, G49A, E64A, S100T
VL: B1 VL
notes: also called M-HLG/M-KV4
B13: M-HHA heavy chain coexpressed with murine 225.28S light chain (mVL) (antibody, V domains shown)
VH: B8 VH with E64A, S100T
VL: B8 VL
notes: also called M-HHA/mVL
B14: M-KV4 light chain paired with the M-HHB heavy chain (antibody, V domains shown)
VH: B8 VH
VL: B1 VL
notes: also called M-HHB/M-KV4
B15: M-KV5 light chain paired with the M-HHB heavy chain (antibody, V domains shown)
VH: B8 VH
VL: B1 VL with Q37L, K42Q, A43S, E45Q, P46L, L48I, F49Y
notes: also called M-HHB/M-KV5
B16: M-KV9 light chain combined with the M-HHB heavy chain (antibody, V domains shown)
VH: B8 VH
VL: B1 VL with K42Q, E45R, L48I, F49Y
notes: also called M-KV9 with M-HHB; M-HHB/M-KV9
B17: M-KV7 light chain paired with the M-HHB heavy chain (antibody, V domains shown)
VH: B8 VH
VL: B1 VL with E45K, L48I, F49Y
notes: also called M-KV7 antibody; M-HHB/M-KV7
B18: M-HHC heavy chain coexpressed with murine 225.28S light chain (mVL) (antibody, V domains shown)
VH: B8 VH with G49A, E50N
VL: B8 VL
notes: also called M-HHC/mVL
B19: M-KV12 light chain combined with the M-HLG heavy chain (antibody, V domains shown)
VH: B8 VH with K13Q, G49A, E64A, S100T
VL: B1 VL with K42Q, E45R, L48I, F49Y, R54L, Y55Q, T56S
notes: also called M-HLG/M-KV12
B20: ch-225.28S antibody (murine 225.28S VH and VL with human constant regions) (antibody, V domains shown)
VH: B7 VH
VL: B8 VL
notes: also called mVH/mVL

What follows are binders tested against T1, human melanoma chondroitin sulfate proteoglycan (MCSP) (human, UniProt Q6UVK1 30-2322) (assay: flow cytometry on A375 human melanoma cells).
T1 construct: whole, on cells; also called HMW-MAA; high molecular weight-melanoma-associated antigen
T1 sequence (Q6UVK1 30-2322): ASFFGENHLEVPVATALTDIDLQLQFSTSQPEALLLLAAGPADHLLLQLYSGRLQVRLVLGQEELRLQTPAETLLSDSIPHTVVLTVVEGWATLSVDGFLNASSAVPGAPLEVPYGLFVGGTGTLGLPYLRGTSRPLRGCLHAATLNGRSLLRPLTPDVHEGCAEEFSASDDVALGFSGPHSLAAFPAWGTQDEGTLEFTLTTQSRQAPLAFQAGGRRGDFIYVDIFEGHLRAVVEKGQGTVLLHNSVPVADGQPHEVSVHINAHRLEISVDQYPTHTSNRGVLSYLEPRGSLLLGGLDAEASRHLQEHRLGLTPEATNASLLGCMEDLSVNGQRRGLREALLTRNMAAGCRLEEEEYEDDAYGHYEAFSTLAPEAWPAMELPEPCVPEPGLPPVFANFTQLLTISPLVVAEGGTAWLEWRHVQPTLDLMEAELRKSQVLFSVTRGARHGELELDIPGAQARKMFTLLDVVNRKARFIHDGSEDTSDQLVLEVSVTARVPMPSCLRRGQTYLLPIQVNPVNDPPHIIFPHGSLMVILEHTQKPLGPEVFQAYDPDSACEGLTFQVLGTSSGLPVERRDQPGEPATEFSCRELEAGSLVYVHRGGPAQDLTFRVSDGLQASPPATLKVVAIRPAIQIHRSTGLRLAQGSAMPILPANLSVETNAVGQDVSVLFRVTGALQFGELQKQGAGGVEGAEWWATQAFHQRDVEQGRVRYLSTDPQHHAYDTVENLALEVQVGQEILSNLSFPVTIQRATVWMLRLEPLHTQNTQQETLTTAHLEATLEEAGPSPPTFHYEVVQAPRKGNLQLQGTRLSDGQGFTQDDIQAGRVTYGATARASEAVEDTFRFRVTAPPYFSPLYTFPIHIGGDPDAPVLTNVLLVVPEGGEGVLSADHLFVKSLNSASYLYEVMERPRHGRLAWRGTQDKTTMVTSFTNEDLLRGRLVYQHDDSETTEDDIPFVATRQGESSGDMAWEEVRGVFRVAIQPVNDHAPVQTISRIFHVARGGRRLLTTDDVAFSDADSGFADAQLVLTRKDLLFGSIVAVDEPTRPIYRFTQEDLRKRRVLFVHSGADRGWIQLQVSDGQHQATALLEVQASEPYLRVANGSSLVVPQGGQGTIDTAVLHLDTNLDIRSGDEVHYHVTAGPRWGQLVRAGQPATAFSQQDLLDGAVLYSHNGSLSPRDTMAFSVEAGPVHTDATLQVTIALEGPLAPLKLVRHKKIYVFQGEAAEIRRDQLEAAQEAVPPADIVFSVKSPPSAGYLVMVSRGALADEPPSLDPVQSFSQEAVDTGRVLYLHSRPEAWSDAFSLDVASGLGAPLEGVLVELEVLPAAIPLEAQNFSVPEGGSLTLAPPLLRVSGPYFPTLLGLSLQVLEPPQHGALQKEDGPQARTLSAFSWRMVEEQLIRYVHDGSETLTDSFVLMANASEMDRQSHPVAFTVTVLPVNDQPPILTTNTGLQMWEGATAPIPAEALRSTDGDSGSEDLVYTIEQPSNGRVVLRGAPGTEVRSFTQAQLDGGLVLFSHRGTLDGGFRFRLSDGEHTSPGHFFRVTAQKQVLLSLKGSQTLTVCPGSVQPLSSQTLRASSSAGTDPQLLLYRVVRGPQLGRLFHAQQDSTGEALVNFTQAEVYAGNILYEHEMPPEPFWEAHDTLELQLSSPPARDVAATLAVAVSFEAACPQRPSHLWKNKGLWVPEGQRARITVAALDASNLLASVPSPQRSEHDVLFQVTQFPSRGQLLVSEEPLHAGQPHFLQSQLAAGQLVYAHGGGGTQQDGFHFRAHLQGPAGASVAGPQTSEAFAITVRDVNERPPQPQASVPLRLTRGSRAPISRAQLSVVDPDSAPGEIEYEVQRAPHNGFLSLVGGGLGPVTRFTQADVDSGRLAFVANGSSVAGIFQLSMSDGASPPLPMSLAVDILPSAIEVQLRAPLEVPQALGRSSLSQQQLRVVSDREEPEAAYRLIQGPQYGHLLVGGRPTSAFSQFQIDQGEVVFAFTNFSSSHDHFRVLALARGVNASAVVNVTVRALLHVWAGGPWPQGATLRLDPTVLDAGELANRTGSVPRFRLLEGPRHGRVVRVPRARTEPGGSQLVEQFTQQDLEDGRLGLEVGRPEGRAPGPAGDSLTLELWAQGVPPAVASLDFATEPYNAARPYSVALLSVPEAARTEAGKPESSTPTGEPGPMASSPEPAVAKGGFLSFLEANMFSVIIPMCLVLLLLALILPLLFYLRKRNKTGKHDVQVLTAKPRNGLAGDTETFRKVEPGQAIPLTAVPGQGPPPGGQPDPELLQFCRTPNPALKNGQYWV
Description: (§1) The purified, monomeric humanized antibody variants were tested for binding to the human HMW-MAA/MCSP antigen on the A375 human melanoma cell line, using a flow cytometry-based assay. 200,000 cells (in 180 μl FACS buffer (PBS containing 2% FCS and 5 mM EDTA) were transferred to 5 ml polystyrene tubes and 20 μl 10 fold concentrated anti-MCSP antibody (primary antibody) samples (1-5000 ng/ml final concentration) or PBS only were added. After gently mixing the samples, the tubes were incubated at 4° C. for 30 min in the dark. Subsequently, samples were washed twice with FACS buffer and pelleted at 300 g for 3 min. Supernatant was aspirated off and cells were taken up in 50 μl FACS buffer and 2 μl secondary antibody (anti-Fc-specific F(ab′)2-FITC fragments (Jackson Immuno Research Laboratories, USA)) was added and the tubes were incubated at 4° C. for 30 min. Samples were washed twice with FACS buffer and taken up in 500 μl of FACS buffer for analysis by Flow Cytometry. Binding was determined by plotting the geometric mean fluorescence against the antibody concentrations.
B1: binds.
B2: no binding (tested: 1-5000 ng/ml final concentration).
B3: binds.
B4: no binding (tested: 1-5000 ng/ml final concentration).
B5: binds.
B6: no binding (tested: 1-5000 ng/ml final concentration).
B7: binds.
B8: binds.
B9: binds.
B10: binds.
B11: no binding (tested: 1-5000 ng/ml final concentration).
B12: binds.
B13: binds.
B14: binds.
B15: no binding (tested: 1-5000 ng/ml final concentration).
B16: binds.
B17: binds.
B18: binds.
B19: binds.

What follows are binders tested against T1, human melanoma chondroitin sulfate … (assay: flow cytometry on A375 human melanoma cells; reference antibody of the comparison).
Description: as §1
B20: binds.

Reference: patent US20060223096A1 (GLYCART BIOTECHNOLOGY, published 2006)
